Measurements taken from paper PMC3319784.

Legend:
[1] = target: first Sam domain of Odin (Odin-Sam1) (human) (UniProt Q92625); assay: ITC
[2] = target: Sam domain of the EphA2 receptor (EphA2-Sam), wild type (human) (UniProt P29317); assay: SPR

Row | Kd [1] [nM] | stoichiometry N [1] | Kd [2] [µM] | Molecule
1 | 620 | 1 | – | Sam domain of the EphA2 receptor (EphA2-Sam), wild type (from UniProt P29317 902-976) (domain or fragment)
2 | – | – | 5.5 | first Sam domain of Odin (Odin-Sam1) (domain or fragment) ISGLRTLEQSVGEWLESIGLQQYESKLLLNGFDDVHFLGSNVMEEQDLRDIGISDPQHRRKLLQAARSLPKVKALGYDGN
